{"source": "paper PMC8258697", "about": "(The Journal of Biological Chemistry, 2021)", "molecules": {"B1": {"name": "sGFP-PPARγ LBD:RXRα total mutant LBD (unlabeled) heterodimer (complex, human)", "chain 1": "PESADLRALAKHLYDSYIKSFPLTKAKARAILTGKTTDKSPFVIYDMNSLMMGEDKIKFKHITPLQEQSKEVAIRIFQGCQFRSVEAVQEITEYAKSIPGFVNLDLNDQVTLLKYGVHEIIYTMLASLMNKDGVLISEGQGFMTREFLKSLRKPFGDFMEPKFEFAVKFNALELDDSDLAIFIAVIILSGDRPGLLNVKPIEDIQDNLLQALELQLKLNHPESSQLFAKLLQKMTDLRQIVTEHVQLLQVIKKTETDMSLHPLLQEIYKDLY", "chain 2": "TSSANEDMPVERILEAELAVEPKTETYVEANMGLNPSSPNDPVTNICQAADKQLFTLTEWAERIPHFSELPLDDQTILLRAGWNELLIASFSHRSIAVKDGILLATGLHVHRNSAHSAGVGAIFDRVLTELVSKMRDMQMDKTELGCLRAIVLFNPDSKGLSNPAEVEALREKVYASLEAYCKHKYPEQPGRFAKLLLRLPALRSIGLKCLEHLFFFKLIGDTPIDTYLMRMLEAPHQMT", "notes": "PPARγ isoform 2 LBD, human, UniProt P37231-1, residues 234-505; RXRα LBD, human, residues 223-462, five AF-2 mutations; also called LBD:LBD heterodimer with RXRα; source: mixed from the purified E. coli proteins (100 nM sGFP-PPARγ LBD, RXRα total mutant LBD titrated); not shown: His10, N-terminal, cleaved; sGFP, N-terminal, kept; MBP, N-terminal, cleaved; His8, N-terminal, cleaved"}, "B2": {"name": "PPARα: PPARα LBD as fusion protein with N-terminal sGFP (protein)", "chain": "SETADLKSLAKRIYEAYLKNFNMNKVKARVILSGKASNNPPFVIHDMETLCMAEKTLVAKLVANGIQNKEAEVRIFHCCQCTSVETVTELTEFAKAIPGFANLDLNDQVTLLKYGVYEAIFAMLSSVMNKDGMLVAYGNGFITREFLKSLRKPFCDIMEPKFDFAMKFNALELDDSDISLFVAAIICCGDRPGLLNVGHIEKMQEGIVHVLRLHLQSNHPDDIFLFPKLLQKMADLRQLVTEHAQLVQIIKKTESDAALHPLLQEIYRDMY", "modifications": "left off: His10, N-terminal, cleaved | sGFP, N-terminal, kept"}, "B3": {"name": "PPARδ: PPARδ LBD as fusion protein with N-terminal sGFP (protein)", "chain": "PQVADLKAFSKHIYNAYLKNFNMTKKKARSILTGKASHTAPFVIHDIETLWQAEKGLVWKQLVNGLPPYKEISVHVFYRCQCTTVETVRELTEFAKSIPSFSSLFLNDQVTLLKYGVHEAIFAMLASIVNKDGLLVANGSGFVTREFLRSLRKPFSDIIEPKFEFAVKFNALELDDSDLALFIAAIILCGDRPGLMNVPRVEAIQDTILRALEFHLQANHPDAQYLFPKLLQKMADLRQLVTEHAQMMQRIKKTETETSLHPLLQEIYKDMY", "modifications": "left off: His10, N-terminal, cleaved | sGFP, N-terminal, kept"}, "B4": {"name": "sGFP-RXRα LBD wildtype (domain or fragment, human, UniProt P19793-1 226-462, looked up)", "chain": "ANEDMPVERILEAELAVEPKTETYVEANMGLNPSSPNDPVTNICQAADKQLFTLVEWAKRIPHFSELPLDDQVILLRAGWNELLIASFSHRSIAVKDGILLATGLHVHRNSAHSAGVGAIFDRVLTELVSKMRDMQMDKTELGCLRAIVLFNPDSKGLSNPAEVEALREKVYASLEAYCKHKYPEQPGRFAKLLLRLPALRSIGLKCLEHLFFFKLIGDTPIDTFLMEMLEAPHQMT", "notes": "retinoid X receptor alpha (RXRα) LBD, human, UniProt P19793-1, residues 226-462; only the fractions eluting as monomer in the second SEC were used; also called RXRα as a fusion protein with sGFP; RXRα wt; source: E. coli T7 express, coexpressed with GroEL/ES, purified (Ni IMAC, TEV, two SEC steps); not shown: His10, N-terminal, cleaved; sGFP, N-terminal, kept"}, "B5": {"name": "biotinylated RXRα LBD (N-terminal Avi-tag) (domain or fragment, human, UniProt P19793-1 226-462, looked up)", "chain": "ANEDMPVERILEAELAVEPKTETYVEANMGLNPSSPNDPVTNICQAADKQLFTLVEWAKRIPHFSELPLDDQVILLRAGWNELLIASFSHRSIAVKDGILLATGLHVHRNSAHSAGVGAIFDRVLTELVSKMRDMQMDKTELGCLRAIVLFNPDSKGLSNPAEVEALREKVYASLEAYCKHKYPEQPGRFAKLLLRLPALRSIGLKCLEHLFFFKLIGDTPIDTFLMEMLEAPHQMT", "modifications": "biotin on the Lys residue in the Avi-tag", "notes": "retinoid X receptor alpha (RXRα) LBD, human, UniProt P19793-1, residues 226-462; coupled to Tb-streptavidin in the assay; also called biotin-labeled RXRα LBD; source: E. coli T7 express, coexpressed with GroEL/ES, purified (Ni IMAC, TEV and BirA, monomeric avidin, SEC); not shown: His10, N-terminal, cleaved; Avi-tag, N-terminal, kept"}}, "key": {"[1]": {"biological_target": "T1, biotinylated CBP-1 cofactor peptide (CREB-binding protein coactivator motif 1) (N-terminal biotin)", "T1 construct": "coupled to Tb-streptavidin in the assay; also called CBP-1 peptide; CBP-derived peptide; source: bought: Eurogentec GmbH", "T1 peptide": "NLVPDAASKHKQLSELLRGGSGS", "assay": "AlphaScreen or HTRF; as a27, with SR11237 (up to 100 μM) titrated together with unlabeled RXRα total mutant LBD (up to 8 μM); referenced to isolated sGFP-PPARγ LBD activated by rosiglitazone", "details": "both partners purified"}, "RXRα LBD": {"biological_target": "T2, RXRα LBD (Homo sapiens, UniProt P19793)", "T2 construct": "His10-tag with TEV site (N, cleaved yes); made in house; host or cells: E. coli T7 express (co-expressed with GroEL/ES)", "T2 sequence (P19793 226-462)": "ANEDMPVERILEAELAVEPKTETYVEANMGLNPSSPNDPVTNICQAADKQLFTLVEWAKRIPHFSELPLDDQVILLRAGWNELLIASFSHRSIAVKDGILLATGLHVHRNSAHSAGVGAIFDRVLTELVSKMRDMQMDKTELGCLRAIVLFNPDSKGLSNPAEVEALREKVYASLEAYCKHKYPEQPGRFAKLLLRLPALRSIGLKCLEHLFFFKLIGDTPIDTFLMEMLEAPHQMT", "assay": "LBD:LBD heterodimer formation HTRF assay, sGFP-PPAR LBD titrated against biotinylated RXRα LBD coupled to Tb-SA", "type": "binding", "details": "sGFP-PPAR LBD titrated up to […]; 0.375 nM RXRα; no ligand; read-out: apparent Kd of heterodimer formation with RXRα LBD"}, "[2]": {"biological_target": "the molecule itself", "assay": "SEC; size exclusion chromatography during purification; 16/600 Superdex75 (and 16/600 Superdex200 for sGFP-RXRα) in 25 mM Hepes pH 7.5, 150 mM KF, 10% glycerol, 5 mM DTT"}, "[3]": {"biological_target": "T3, biotinylated RXRα LBD (N-terminal Avi-tag) (human, UniProt P19793-1 226-462, biotin on the Lys residue in the Avi-tag)", "T3 chain": "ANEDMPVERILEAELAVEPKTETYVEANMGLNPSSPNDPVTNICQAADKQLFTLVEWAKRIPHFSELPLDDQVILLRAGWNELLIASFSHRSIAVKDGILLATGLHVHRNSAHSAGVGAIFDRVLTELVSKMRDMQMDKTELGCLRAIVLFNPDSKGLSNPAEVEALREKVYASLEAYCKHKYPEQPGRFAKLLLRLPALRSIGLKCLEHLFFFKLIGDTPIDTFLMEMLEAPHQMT", "assay": "FRET"}, "sGFP-PPARβ/δ LBD": {"biological_target": "T4, sGFP-PPARβ/δ LBD (human, UniProt Q03181-1 170-441)", "T4 construct": "PPARβ/δ LBD, human, UniProt Q03181-1, residues 170-441; also called PPARδ; source: E. coli T7 express, coexpressed with GroEL/ES, purified (Ni IMAC, TEV, reverse IMAC, SEC); not shown: His10, N-terminal, cleaved; sGFP, N-terminal, kept", "T4 sequence (looked up)": "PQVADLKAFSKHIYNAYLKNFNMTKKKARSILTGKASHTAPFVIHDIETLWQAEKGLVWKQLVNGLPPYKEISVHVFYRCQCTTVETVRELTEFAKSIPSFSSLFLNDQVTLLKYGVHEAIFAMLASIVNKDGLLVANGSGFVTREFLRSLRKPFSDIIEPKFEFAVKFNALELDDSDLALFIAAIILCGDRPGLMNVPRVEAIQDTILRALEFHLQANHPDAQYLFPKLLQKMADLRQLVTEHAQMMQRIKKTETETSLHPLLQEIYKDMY", "assay": "AlphaScreen or HTRF; LBD:LBD dimer formation; biotinylated RXRα LBD (0.375 nM) coupled to Tb-SA (0.75 nM) as FRET donor; sGFP-PPAR LBD titrated up to 4.8 μM, total sGFP kept constant with free sGFP; no ligand; HTRF assay buffer with 0.1% CHAPS and 1% DMSO; 1 h at RT; apparent Kd from the inflection point", "details": "both partners purified"}, "sGFP-PPARα LBD": {"biological_target": "T5, sGFP-PPARα LBD (human, UniProt Q07869-1 198-468)", "T5 construct": "PPARα LBD, human, UniProt Q07869-1, residues 198-468; source: E. coli T7 express, coexpressed with GroEL/ES, purified (Ni IMAC, TEV, reverse IMAC, SEC); not shown: His10, N-terminal, cleaved; sGFP, N-terminal, kept", "T5 sequence (looked up)": "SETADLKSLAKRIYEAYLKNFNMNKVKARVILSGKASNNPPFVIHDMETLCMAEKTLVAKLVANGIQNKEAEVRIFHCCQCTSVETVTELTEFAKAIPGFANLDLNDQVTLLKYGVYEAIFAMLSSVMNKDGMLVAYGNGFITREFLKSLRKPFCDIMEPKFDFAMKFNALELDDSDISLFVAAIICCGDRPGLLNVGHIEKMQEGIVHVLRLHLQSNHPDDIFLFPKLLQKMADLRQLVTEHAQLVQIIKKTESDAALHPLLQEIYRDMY", "assay": "AlphaScreen or HTRF; LBD:LBD dimer formation; biotinylated RXRα LBD (0.375 nM) coupled to Tb-SA (0.75 nM) as FRET donor; sGFP-PPAR LBD titrated up to 4.8 μM, total sGFP kept constant with free sGFP; no ligand; HTRF assay buffer with 0.1% CHAPS and 1% DMSO; 1 h at RT; apparent Kd from the inflection point", "details": "both partners purified"}}, "note": "Several values for one entry are separate records, joined by “and”; a condition that tells them apart may be missing. Equal values may be shown once.", "data": [{"molecule": "B1", "values": [{"measurement": "CBP-1 recruitment relative to full activation of monomeric PPARγ with rosiglitazone (%)", "setting": "[1]", "result": 26, "unit": "%"}]}, {"molecule": "B2", "values": [{"measurement": "Kd", "setting": "RXRα LBD", "result": 72, "unit": "nM"}]}, {"molecule": "B3", "values": [{"measurement": "Kd", "setting": "RXRα LBD", "result": 363, "unit": "nM"}]}, {"molecule": "B4", "values": [{"measurement": "stoichiometry N", "setting": "[2]", "result": 2}, {"measurement": "Kd", "setting": "[3]", "result": "50 nM and 28 nM"}]}, {"molecule": "B5", "values": [{"measurement": "Kd", "setting": "sGFP-PPARβ/δ LBD", "result": 363, "unit": "nM"}, {"measurement": "Kd", "setting": "sGFP-PPARα LBD", "result": 72, "unit": "nM"}]}]}
